Each block holds one molecule with its values, some of them ahead of it.
Legend:
[1] = target: recombinant Synechocystis 6803 aconitase (AcnB), His-tagged (Synechocystis sp. PCC 6803) (UniProt P74582)
purified protein = substrate: O=C(O)/C=C(/CC(=O)O)C(=O)O; assay: purified protein; assay type: biochemical, Synechocystis sp. PCC 6803; details: 10 mM DTT (reducing), no AcnSP, 50 mM Tris-malate pH 7.5, 30°C, 0.3 mM NADP+, 2 mM Na2EDTA, 10 mM MnCl2

Kcat of aconitase with 2 nmol AcnSP added to 2 nmol AcnB, oxidizing conditions (−DTT); control without AcnSP 3.46 [1]: 3.15 s^–1
Kcat of aconitase with 2 nmol AcnSP added to 2 nmol AcnB, reducing conditions (+10 mM DTT); control without AcnSP 14.92 [1]: 13.8 s^–1
Molecule: synthetic AcnSP peptide (aconitase small protein)

B1: recombinant AcnB (aconitase B, Slr0665) (Synechocystis sp. PCC 6803 substr. Kazusa) (protein)
chain: MLQAYRRHVADRQKLGIPPLPLNAQQTTELCELLKNPPEAEKEELMMLLRDRVPPGVDEAAYVKAGFLTAIAKGEVTCPLISGQGAVDLLGTMIGGYNVQSLIELLKSKDTNIASAAATALSKTLLVFDAFNDVLHLSDTNGYAKQVIDAWAEGAWFINKPEVPERITVTVFKVPGETNTDDLSPAPHATTRPDIPLHALAMLEAKMPEGLGTIAELKQKGHPVAYVGDVVGTGSSRKSAINSVLWHIGTDIPFVPNKRAGGYILGGKIAPIFFNTAEDSGALPIECDVNQLNTGDVITIYPREGKITNKAGETITTFQLKPETILDEVRAGGRIPLLIGRALTDKTREALGLSPSPLFVRPTAPADTGKGFTLAQKMVGKACGVQGIRPGTSCEPIMTTVGSQDTTGPMTRDELKELACLGFNADLTLQTFCHTAAYPKPVDIKTHKDLPDFFSTRGGVALRPGDGIIHSWLNRMLLPDTVGTGGDSHTRFPLGISFPAGSGLVAFAAALGVMPLDMPESVLVKFTGELQPGVTLRDIVNAIPWVAMQQGKLTVGKGDKVNVFNGRIMEMEGLPDLKVEQAFELTDATAERSCSGSTIKLSEETVAEYLRSNVVLMKNMIARGYQDARTLLRRIAKMEEWLANPSLMSGDADAEYADVIEVNLDEIKEPIVAAPNDPDNVKLMSECAGDVIHEVFIGSCMTNIGHYRAAAKILEGAGTVKGRLWICPPTRMDEQQLREEGIYGIFAAAGARTEMPGCSLCMGNQARVEDGVTVFSTSTRNFNNRMGKGAQVYLGSAELAAVCALLGKIPTVEEYLAIVSEKVAPFEGELYRYLNFNEIDNFEDFGRVIPLDQMPKIEDILGMPVGAK
notes: full-length (868 aa), His-tagged from pET28a(+) (NdeI/SalI), E. coli BL21 (DE3), Ni-NTA; medium supplemented with Fe-citrate for iron-sulfur centers
Km (purified protein): 371 ± 20 µM
Vmax (purified protein): 9.04 µmol/min/mg
kcat (purified protein): 14.9 s⁻¹
